Assay results taken from IntAct's records for PubMed 29426014.

B1: Ubiquitin-protein ligase (Homo sapiens), Q05086-3 (parent)
chain: MATACKRSGEPQSDDIEASRMKRAAAKHLIERYYHQLTEGCGNEACTNEFCASCPTFLRMDNNAAAIKALELYKINAKLCDPHPSKKGASSAYLENSKGAPNNSCSEIKMNKKGARIDFKDVTYLTEEKVYEILELCREREDYSPLIRVIGRVFSSAEALVQSFRKVKQHTKEELKSLQAKDEDKDEDEKEKAACSAAAMEEDSEASSSRIGDSSQGDNNLQKLGPDDVSVDIDAIRRVYTRLLSNEKIETAFLNALVYLSPNVECDLTYHNVYSRDPNYLNLFIIVMENRNLHSPEYLEMALPLFCKAMSKLPLAAQGKLIRLWSKYNADQIRRMMETFQQLITYKVISNEFNSRNLVNDDDAIVAASKCLKMVYYANVVGGEVDTNHNEEDDEEPIPESSELTLQELLGEERRNKKGPRVDPLETELGVKTLDCRKPLIPFEEFINEPLNEVLEMDKDYTFFKVETENKFSFMTCPFILNAVTKNLGLYYDNRIRMYSERRITVLYSLVQGQQLNPYLRLKVRRDHIIDDALVRLEMIAMENPADLKKQLYVEFEGEQGVDEGGVSKEFFQLVVEEIFNPDIGMFTYDESTKLFWFNPSSFETEGQFTLIGIVLGLAIYNNCILDVHFPMVVYRKLMGKKGTFRDLGDSHPVLYQSLKDLLEYEGNVEDDMMITFQISQTDLFGNPMMYDLKENGDKIPITNENRKEFVNLYSDYILNKSVEKQFKAFRRGFHMVTNESPLKYLFRPEEIELLICGSRNLDFQALEETTEYDGGYTRDSVLIREFWEIVHSFTDEQKRLFLQFTTGTDRAPVGGLGKLKMIIAKNGPDTERLPTSHTCFNVLLLPEYSSKEKLKERLLKAITYAKGFGML
partner: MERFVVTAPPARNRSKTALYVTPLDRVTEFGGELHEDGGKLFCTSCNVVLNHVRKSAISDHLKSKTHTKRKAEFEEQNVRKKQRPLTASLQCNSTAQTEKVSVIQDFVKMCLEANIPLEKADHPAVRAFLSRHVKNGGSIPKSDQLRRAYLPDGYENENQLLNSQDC
B2: Ubiquitin-protein ligase (Homo sapiens), Q05086-2 (parent)
chain: MKRAAAKHLIERYYHQLTEGCGNEACTNEFCASCPTFLRMDNNAAAIKALELYKINAKLCDPHPSKKGASSAYLENSKGAPNNSCSEIKMNKKGARIDFKDVTYLTEEKVYEILELCREREDYSPLIRVIGRVFSSAEALVQSFRKVKQHTKEELKSLQAKDEDKDEDEKEKAACSAAAMEEDSEASSSRIGDSSQGDNNLQKLGPDDVSVDIDAIRRVYTRLLSNEKIETAFLNALVYLSPNVECDLTYHNVYSRDPNYLNLFIIVMENRNLHSPEYLEMALPLFCKAMSKLPLAAQGKLIRLWSKYNADQIRRMMETFQQLITYKVISNEFNSRNLVNDDDAIVAASKCLKMVYYANVVGGEVDTNHNEEDDEEPIPESSELTLQELLGEERRNKKGPRVDPLETELGVKTLDCRKPLIPFEEFINEPLNEVLEMDKDYTFFKVETENKFSFMTCPFILNAVTKNLGLYYDNRIRMYSERRITVLYSLVQGQQLNPYLRLKVRRDHIIDDALVRLEMIAMENPADLKKQLYVEFEGEQGVDEGGVSKEFFQLVVEEIFNPDIGMFTYDESTKLFWFNPSSFETEGQFTLIGIVLGLAIYNNCILDVHFPMVVYRKLMGKKGTFRDLGDSHPVLYQSLKDLLEYEGNVEDDMMITFQISQTDLFGNPMMYDLKENGDKIPITNENRKEFVNLYSDYILNKSVEKQFKAFRRGFHMVTNESPLKYLFRPEEIELLICGSRNLDFQALEETTEYDGGYTRDSVLIREFWEIVHSFTDEQKRLFLQFTTGTDRAPVGGLGKLKMIIAKNGPDTERLPTSHTCFNVLLLPEYSSKEKLKERLLKAITYAKGFGML
partner: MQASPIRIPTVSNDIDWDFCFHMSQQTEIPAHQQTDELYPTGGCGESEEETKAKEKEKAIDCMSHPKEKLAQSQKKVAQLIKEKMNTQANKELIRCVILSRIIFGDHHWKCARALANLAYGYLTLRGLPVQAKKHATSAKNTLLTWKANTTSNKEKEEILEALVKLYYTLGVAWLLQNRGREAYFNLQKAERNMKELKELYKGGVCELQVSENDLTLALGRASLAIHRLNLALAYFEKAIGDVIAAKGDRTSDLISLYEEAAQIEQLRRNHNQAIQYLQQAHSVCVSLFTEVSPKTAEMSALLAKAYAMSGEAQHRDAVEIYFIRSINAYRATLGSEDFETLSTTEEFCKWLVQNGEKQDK
B3: Ubiquitin-protein ligase (Homo sapiens), Q05086-1 (parent)
chain: MEKLHQCYWKSGEPQSDDIEASRMKRAAAKHLIERYYHQLTEGCGNEACTNEFCASCPTFLRMDNNAAAIKALELYKINAKLCDPHPSKKGASSAYLENSKGAPNNSCSEIKMNKKGARIDFKDVTYLTEEKVYEILELCREREDYSPLIRVIGRVFSSAEALVQSFRKVKQHTKEELKSLQAKDEDKDEDEKEKAACSAAAMEEDSEASSSRIGDSSQGDNNLQKLGPDDVSVDIDAIRRVYTRLLSNEKIETAFLNALVYLSPNVECDLTYHNVYSRDPNYLNLFIIVMENRNLHSPEYLEMALPLFCKAMSKLPLAAQGKLIRLWSKYNADQIRRMMETFQQLITYKVISNEFNSRNLVNDDDAIVAASKCLKMVYYANVVGGEVDTNHNEEDDEEPIPESSELTLQELLGEERRNKKGPRVDPLETELGVKTLDCRKPLIPFEEFINEPLNEVLEMDKDYTFFKVETENKFSFMTCPFILNAVTKNLGLYYDNRIRMYSERRITVLYSLVQGQQLNPYLRLKVRRDHIIDDALVRLEMIAMENPADLKKQLYVEFEGEQGVDEGGVSKEFFQLVVEEIFNPDIGMFTYDESTKLFWFNPSSFETEGQFTLIGIVLGLAIYNNCILDVHFPMVVYRKLMGKKGTFRDLGDSHPVLYQSLKDLLEYEGNVEDDMMITFQISQTDLFGNPMMYDLKENGDKIPITNENRKEFVNLYSDYILNKSVEKQFKAFRRGFHMVTNESPLKYLFRPEEIELLICGSRNLDFQALEETTEYDGGYTRDSVLIREFWEIVHSFTDEQKRLFLQFTTGTDRAPVGGLGKLKMIIAKNGPDTERLPTSHTCFNVLLLPEYSSKEKLKERLLKAITYAKGFGML
partner: B1 partner
B4: Ubiquitin-protein ligase (Homo sapiens), Q05086-3 (parent)
chain: B1 chain
partner: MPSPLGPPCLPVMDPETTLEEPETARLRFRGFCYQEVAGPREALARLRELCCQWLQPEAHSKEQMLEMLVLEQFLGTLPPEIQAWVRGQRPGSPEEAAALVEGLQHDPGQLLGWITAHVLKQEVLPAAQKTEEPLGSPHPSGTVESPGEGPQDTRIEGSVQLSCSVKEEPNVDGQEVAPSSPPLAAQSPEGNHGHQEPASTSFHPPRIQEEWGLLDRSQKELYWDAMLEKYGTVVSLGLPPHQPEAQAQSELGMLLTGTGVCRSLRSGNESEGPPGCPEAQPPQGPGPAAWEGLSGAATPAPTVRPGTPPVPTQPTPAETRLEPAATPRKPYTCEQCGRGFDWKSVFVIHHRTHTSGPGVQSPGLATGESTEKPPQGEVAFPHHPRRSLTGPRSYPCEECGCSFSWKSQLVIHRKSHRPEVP
B5: Ubiquitin-protein ligase (Homo sapiens), Q05086-3 (parent)
chain: B1 chain
B6: Ubiquitin-protein ligase (Homo sapiens), Q05086-2 (parent)
chain: B2 chain
partner: B1 partner
B7: Ubiquitin-protein ligase (Homo sapiens), Q05086-3 (parent)
chain: B1 chain
partner: B2 partner
B8: Ubiquitin-protein ligase (Homo sapiens), Q05086-3 (parent)
chain: B1 chain
partner: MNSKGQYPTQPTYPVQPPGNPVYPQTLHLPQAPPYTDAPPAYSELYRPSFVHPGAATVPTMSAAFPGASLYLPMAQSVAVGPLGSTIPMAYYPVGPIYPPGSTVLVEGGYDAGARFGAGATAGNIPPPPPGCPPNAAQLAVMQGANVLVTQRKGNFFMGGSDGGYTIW
B9: Ubiquitin-protein ligase (Homo sapiens), Q05086-1 (parent)
chain: B3 chain
partner: B8 partner
B10: Ubiquitin-protein ligase (Homo sapiens), Q05086-2 (parent)
chain: B2 chain
partner: B4 partner
B11: Ubiquitin-protein ligase (Homo sapiens), Q05086-1 (parent)
chain: B3 chain
partner: B4 partner
B12: Ubiquitin-protein ligase (Homo sapiens), Q05086-2 (parent)
chain: B2 chain
partner: B8 partner

Variants of: B1
Details: with cgbp1_human CGGBP1, Q9UFW8

| Variant | effect of a mutation on the interaction |
| --- | --- |
| C840A | causing an interaction |

Variants of: B2
Details: with TTC23L

| Variant | effect of a mutation on the interaction |
| --- | --- |
| C820A | causing an interaction |

Variants of: B3
Details: with cgbp1_human CGGBP1, Q9UFW8

| Variant | effect of a mutation on the interaction |
| --- | --- |
| C843A | causing an interaction |

Variants of: B4
Details: with ZNF446, Q9NWS9-2

| Variant | effect of a mutation on the interaction |
| --- | --- |
| C840A | causing an interaction |

Variants of: B5
Details: with ZNF250, P15622-3
Chain of ZNF250, P15622-3 (P15622 other isoform, or with tags, fused parts or gaps): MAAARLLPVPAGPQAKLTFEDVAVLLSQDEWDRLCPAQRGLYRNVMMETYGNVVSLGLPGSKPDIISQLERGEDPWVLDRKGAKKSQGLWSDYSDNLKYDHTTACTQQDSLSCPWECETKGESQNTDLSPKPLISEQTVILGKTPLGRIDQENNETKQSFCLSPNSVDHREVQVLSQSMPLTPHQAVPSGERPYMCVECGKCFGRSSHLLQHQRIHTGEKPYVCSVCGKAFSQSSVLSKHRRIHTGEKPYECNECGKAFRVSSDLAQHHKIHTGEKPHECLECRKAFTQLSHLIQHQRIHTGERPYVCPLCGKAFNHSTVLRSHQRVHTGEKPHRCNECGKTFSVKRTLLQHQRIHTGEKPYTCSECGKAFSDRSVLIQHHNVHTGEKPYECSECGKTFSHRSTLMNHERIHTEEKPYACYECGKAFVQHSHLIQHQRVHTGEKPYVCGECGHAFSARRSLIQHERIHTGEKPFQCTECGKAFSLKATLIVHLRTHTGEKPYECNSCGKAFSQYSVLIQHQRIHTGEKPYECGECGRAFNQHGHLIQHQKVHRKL

| Variant | effect of a mutation on the interaction |
| --- | --- |
| C840A | causing an interaction |

Variants of: B5
Details: with PAX6, P26367-1
Chain of PAX6, P26367-1 (P26367 whole entry): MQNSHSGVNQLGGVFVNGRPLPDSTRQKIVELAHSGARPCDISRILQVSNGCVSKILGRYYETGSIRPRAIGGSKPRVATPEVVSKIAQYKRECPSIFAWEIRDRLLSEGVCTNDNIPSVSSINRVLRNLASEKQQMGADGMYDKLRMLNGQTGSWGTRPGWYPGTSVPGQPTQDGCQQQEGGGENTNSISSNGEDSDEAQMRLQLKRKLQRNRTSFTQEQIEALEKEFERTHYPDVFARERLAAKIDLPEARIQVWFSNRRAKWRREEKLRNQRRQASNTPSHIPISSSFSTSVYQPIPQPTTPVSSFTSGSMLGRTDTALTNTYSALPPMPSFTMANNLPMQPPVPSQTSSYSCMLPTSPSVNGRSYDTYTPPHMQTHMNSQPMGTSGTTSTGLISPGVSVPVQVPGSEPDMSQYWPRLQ

| Variant | effect of a mutation on the interaction |
| --- | --- |
| C840A | causing an interaction |

Variants of: B5
Details: with magac_human MAGEA12, P43365
Chain of magac_human MAGEA12, P43365 (P43365 whole entry): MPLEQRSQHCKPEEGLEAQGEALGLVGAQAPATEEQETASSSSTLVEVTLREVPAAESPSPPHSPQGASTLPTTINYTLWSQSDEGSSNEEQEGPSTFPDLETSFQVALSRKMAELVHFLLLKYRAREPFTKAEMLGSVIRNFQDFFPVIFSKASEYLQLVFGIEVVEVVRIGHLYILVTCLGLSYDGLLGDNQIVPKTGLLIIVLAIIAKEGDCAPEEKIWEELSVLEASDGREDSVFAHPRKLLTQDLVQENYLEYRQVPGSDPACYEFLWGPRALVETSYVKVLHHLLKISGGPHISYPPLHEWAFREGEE

| Variant | effect of a mutation on the interaction |
| --- | --- |
| C840A | with no effect |

Variants of: B5
Details: with PSMD4, P55036-1
Chain of PSMD4, P55036-1 (P55036 whole entry): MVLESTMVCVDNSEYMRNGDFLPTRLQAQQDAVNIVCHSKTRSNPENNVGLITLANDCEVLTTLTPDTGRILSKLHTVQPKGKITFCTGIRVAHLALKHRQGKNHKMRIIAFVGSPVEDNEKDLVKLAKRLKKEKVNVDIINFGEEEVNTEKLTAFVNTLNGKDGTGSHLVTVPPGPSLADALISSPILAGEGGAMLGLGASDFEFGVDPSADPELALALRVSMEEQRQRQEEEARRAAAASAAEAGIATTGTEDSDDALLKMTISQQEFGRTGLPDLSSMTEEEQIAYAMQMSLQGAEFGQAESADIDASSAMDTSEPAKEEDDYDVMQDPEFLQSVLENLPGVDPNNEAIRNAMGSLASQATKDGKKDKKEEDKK

| Variant | effect of a mutation on the interaction |
| --- | --- |
| C840A | with no effect |

Variants of: B5
Details: with PAX5, Q02548-1
Chain of PAX5, Q02548-1 (Q02548 whole entry): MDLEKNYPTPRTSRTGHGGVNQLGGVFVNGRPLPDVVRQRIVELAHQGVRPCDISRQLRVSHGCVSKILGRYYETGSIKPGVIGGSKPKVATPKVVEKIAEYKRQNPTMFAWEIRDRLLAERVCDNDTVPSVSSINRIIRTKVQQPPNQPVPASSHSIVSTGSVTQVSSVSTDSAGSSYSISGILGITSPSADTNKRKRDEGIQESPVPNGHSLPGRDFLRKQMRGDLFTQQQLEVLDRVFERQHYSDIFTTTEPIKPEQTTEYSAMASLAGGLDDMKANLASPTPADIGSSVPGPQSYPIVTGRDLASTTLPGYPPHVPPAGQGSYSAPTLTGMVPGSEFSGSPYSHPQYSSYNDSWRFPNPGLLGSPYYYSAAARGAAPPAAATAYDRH

| Variant | effect of a mutation on the interaction |
| --- | --- |
| C840A | causing an interaction |

Variants of: B5
Details: with PTCD3, Q96EY7-1

| Variant | effect of a mutation on the interaction |
| --- | --- |
| C840A | with no effect |

Variants of: B5
Details: with ubql2_human UBQLN2, Q9UHD9
Chain of ubql2_human UBQLN2, Q9UHD9 (Q9UHD9 whole entry): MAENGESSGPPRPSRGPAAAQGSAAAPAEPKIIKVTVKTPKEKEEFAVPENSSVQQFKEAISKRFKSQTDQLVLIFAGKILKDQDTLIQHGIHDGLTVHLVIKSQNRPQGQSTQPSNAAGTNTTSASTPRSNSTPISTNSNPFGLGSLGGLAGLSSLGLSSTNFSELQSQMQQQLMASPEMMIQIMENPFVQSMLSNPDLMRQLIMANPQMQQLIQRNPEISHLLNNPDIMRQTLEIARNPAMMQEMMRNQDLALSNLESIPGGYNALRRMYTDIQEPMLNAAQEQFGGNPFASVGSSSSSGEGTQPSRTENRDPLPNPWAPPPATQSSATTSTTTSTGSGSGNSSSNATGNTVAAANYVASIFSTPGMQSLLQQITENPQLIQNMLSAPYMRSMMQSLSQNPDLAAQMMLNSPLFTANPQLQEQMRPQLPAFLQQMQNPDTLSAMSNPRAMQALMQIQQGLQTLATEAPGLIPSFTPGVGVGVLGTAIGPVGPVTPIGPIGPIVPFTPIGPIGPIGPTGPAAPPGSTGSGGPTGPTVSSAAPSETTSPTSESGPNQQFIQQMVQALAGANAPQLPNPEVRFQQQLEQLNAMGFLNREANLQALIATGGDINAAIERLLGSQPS

| Variant | effect of a mutation on the interaction |
| --- | --- |
| C840A | with no effect |

Variants of: B5
Details: with UBQLN1, Q9UMX0-1
Chain of UBQLN1, Q9UMX0-1 (Q9UMX0 whole entry): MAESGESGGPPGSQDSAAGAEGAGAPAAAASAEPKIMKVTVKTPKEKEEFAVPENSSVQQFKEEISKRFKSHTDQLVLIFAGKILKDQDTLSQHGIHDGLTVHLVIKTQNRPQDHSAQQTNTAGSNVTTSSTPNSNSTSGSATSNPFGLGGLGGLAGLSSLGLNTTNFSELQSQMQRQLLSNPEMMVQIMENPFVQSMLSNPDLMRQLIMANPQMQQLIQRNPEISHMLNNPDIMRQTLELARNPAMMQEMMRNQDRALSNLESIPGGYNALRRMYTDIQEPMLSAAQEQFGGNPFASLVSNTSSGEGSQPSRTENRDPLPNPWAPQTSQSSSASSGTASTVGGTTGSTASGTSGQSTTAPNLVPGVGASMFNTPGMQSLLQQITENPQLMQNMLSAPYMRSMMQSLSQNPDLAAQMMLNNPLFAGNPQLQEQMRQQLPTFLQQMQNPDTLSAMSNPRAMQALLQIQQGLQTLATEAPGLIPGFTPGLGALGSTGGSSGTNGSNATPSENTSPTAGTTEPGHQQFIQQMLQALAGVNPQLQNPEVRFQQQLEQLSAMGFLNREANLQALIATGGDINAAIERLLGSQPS

| Variant | effect of a mutation on the interaction |
| --- | --- |
| C840A | with no effect |

Variants of: B6
Details: with cgbp1_human CGGBP1, Q9UFW8

| Variant | effect of a mutation on the interaction |
| --- | --- |
| C820A | causing an interaction |

Variants of: B7
Details: with TTC23L

| Variant | effect of a mutation on the interaction |
| --- | --- |
| C840A | causing an interaction |

Variants of: B8
Details: with DAZAP2, Q15038-1

| Variant | effect of a mutation on the interaction |
| --- | --- |
| C840A | causing an interaction |

Variants of: B9
Details: with DAZAP2, Q15038-1

| Variant | effect of a mutation on the interaction |
| --- | --- |
| C843A | causing an interaction |

Variants of: B10
Details: with ZNF446, Q9NWS9-2

| Variant | effect of a mutation on the interaction |
| --- | --- |
| C820A | causing an interaction |

Variants of: B11
Details: with ZNF446, Q9NWS9-2

| Variant | effect of a mutation on the interaction |
| --- | --- |
| C843A | causing an interaction |

Variants of: B12
Details: with DAZAP2, Q15038-1

| Variant | effect of a mutation on the interaction |
| --- | --- |
| C820A | causing an interaction |
